These results are taken from the DeepSol protein solubility set.

A short description of this series: soluble on expression in E. coli; label from the status in PepcDB or PDB records.
With “MSLQRKRIVRERVVYVLDYMREGNPLDKHKFHRDKPLIQAVGEDYFLLLELTPLSYNLDFLPEDKIELDSNSSVKVDAHISYEDLTSVSRDNLPKILYKIVFEKEKVFVEIFNKAEPLTLRLHALELLPNIGKKTLRIILEERKKKPFESFKDIESRIGVKDVASILVERIIKEMQGGEKYYLFVYPLIPDENKRLEQQFIYVGYIEKLKEGHHHHHH”, the “soluble on expression in E. coli” value is recorded as “soluble”.

Turning to “MSLQTSDQYSIQEVVDAGHGFFGETTGGLAKVVERAFQQYGLPNGYILGQEGSGAFVAGLTYGEGTLYTKNAGQHPVFWQGPSLGLDYGGQGTRAMMLVYNLPSVDALYRRYGGVSGSAFIVAGVGMTYLKSSDVTLAPIRTGIGARLGINVGYLKLTQQPTWNPFEGHHHHHH”, the “soluble on expression in E. coli” value was “soluble”.

On to “MSLQYQNQDNFPERIEYLVDKLNGPSEFARKTGVTLSTITRWRKGEADPSRSNLVKIAEVTGVSIEWLATGKIKEEKTTEEKPAGSLVSRAFERMQAMLEEGVSMIDSYSSINVSAGFGSFNEGITQPDGQEPYSDELLTSLGVKADNCAVFWANGNSMLPTINNYDQMLVDLSRKEIQGDRIYLVQNGESVWVKRVKMEWDGISLISDNKEEYPPISITGENAQNLQIIGQVVHIGHSLIEGHHHHHH”, for which the “soluble on expression in E. coli” value is reported as “soluble”.

As to “MSLRAALADLHASIVSARKAPFSDRPIEGSLERCLAALAPLCRRARITRLGDLTGLDRLGLPVMQAVRPAALSEVTSLGRGLSRAEAAVGALMESLERYFAEAIPAERTFLATADQLEVTDGLFENLVVPEWRGKWRQRTIAWIEGIDVVGGSAYPVPLELVHTRYSEPQPAHDGAFLRTTTGLACHTSRHGAFLHGLWECLERDAIARAFGTHGFFDRWRIAPCGLGDGVDHIRSLAGARGISFALWLAPSPAAVPVVWCQTVEAGHGEPILALPTEGYAAGPSIEMAAASAMLEALSARAGAISGARDDQTREHYRRSTDAAVAKARELVLADAASKPGEATYATIPDPGTLLDRVVEAGLGPVLAIPVGVDEEAGVHCVRTVLPGASPFFVLREGHHHHHH”, the “soluble on expression in E. coli” value is listed as “not soluble”.

On to “MSLRAGVTGGPQIITKVITMIKFVLDTSIFVNPDVRKKFGETPTEAMKTFLHYAENLFGKVEFYMPPGIYRELMHFVEEEEVSPDIELYIIKKPPNVHDIKIPAFVVYELIEDIRRRVDKGLRVAEKAVRESVIDTSNVDKIIQKLRRNYRKALREGILDSKEDFELILLAKEIDGIIVSADVGILTWAEKMGIKWVDAFKFKEVLSELVEKFKRSESEKERKEGHHHHHH”, for which the “soluble on expression in E. coli” value is reported as “not soluble”.

On to “MSLRGNFFSFVRISGQSMSPNLVNNQIVLLEKKANVSRGTVIVSKTNNLQKQNTGVQDIALRVVALPGDKVNYKKGQLYVNGKKVNQSYISSQVKTETGMSIDTGWSINSLSLSKNWPKSQRNIKKVQKNSYFVLADNRIDPVDSRQYGLIKKRQIEGVVKVFFLGNKNKDEGHHHHHH”, for which the “soluble on expression in E. coli” value is “not soluble”.

As for “MSLRILYLDPFSGISGDMFLGLLVDLGVDPEKIKSRLEKLNVEFDLVVKKVNKKGVTATKVDVVFPRKEHHEDHIVSDHDHHHHHGRHLSEIVEVLSRLEDPLKEKAIRMFEALAEAESKIHGLSKEKVHFHEVGAMDAVIEIAGAVVGLELLEVEKVFCGTVNTGSGFVMTEHGRYPVPAPATAELLKGIPIYMDQKVRAELVTPTGAVILKILVDEFRTPILRVEKVGYGAGTMDLEIPNVLRGYLGYIEPSERTGDVLIETNVDDMNPQLFGHLMERLFEAGAKDVFFTPIYMKKNRPAVKVSVLCHESKKDEILKLLFKESTSIGARVFYPEKVEATRTLKTVKTEYGEIPVKIASFDSEIVNISPEYEACKKVAQEKGIPLKEVYRAVYKSVSEVRNDVEGHHHHHH”, the “soluble on expression in E. coli” value is “soluble”.

“MSLRINLTSEKTLKEASTSMAPNVLKGNVIKNKAVASGKYVPFFGSSELSRFSAFHPSVLSEKYQRNYRPFLLGEAGTQSLTQAMVIHSMGDAIANKKAVFILSPQWFVKKGVPNDSFGAHYSQLQTYQWLANLTELTSGDQYLAQRLTKFPVVQKDKVLMETLANLQAGQLPQRSQRDYFIMNLRFLNREDELFSQIGMVSREPIVEKDMKQLPATYNFNELDQLAGKIAAKAINNNKFEISNGFYRQRIKPVLPKLAHSQKKWDYRFSPEYGDFQAALEQLAEKNVDVLFVIPPVNKRWSDYTGLSQDMLQQVARKLKYQLQEQGFTNIADFSTCSNERYFMADTIHLGWRGWLAVDRQVDEFMKQPASKKLAYQIDDRFYQTDWQQQNPLVLPQFEGHHHHHH”: the “soluble on expression in E. coli” value is given as “soluble”.

For “MSLRIQDGTMRYTYKGVPTYKNPFDLALYQMLLWQQKPRTLIEIGSKWGGSALWFADMMCSFGVDCVIHSIDITPPSISVPGVTFHRGDGRDLAATLPADLMESLPRPIFVIEDADHHCETTLAVLRFFDRWLVAGEYIAVEDGIVDDLYGPEFVARLMGGPRRAVELFLRDRGQNYEIDTGLCDHFGTNVTWNVNGYLRRVREGHHHHHH”, the “soluble on expression in E. coli” value was “not soluble”.

For the sequence “MSLRIRVPATTANLGPGFDSCGLALTLYLTLDIGAEADSWYIEHNIGGGIPHDETNVIIETALNLAPNLTPHHLVMTCDIPPARGLGSSSAAVVAGIELANTLAELNLSKEEKVRIAAEIEGHPDNVAPAVLGNWVVGAKLDGEDFYVRHLFPDCALIAFIPKAELLTSESRGVLPDTLPFKEAVQASSIANVMIAAILRNDMTLAGEMMERDLWHEKYRSQLVPHLAQIRDVAKNQGAYAACLSGAGPTVLVFAPRNLANKLQTSLQTLEIDADVLLLDVEGSGAEVFREGHHHHHH”, the “soluble on expression in E. coli” value is recorded as “soluble”.

“MSLRKPPLHMLPLGGCGEIGMNFTLYGHQDHWIVVDCGMMIRQDLPQAPLQVPNVDMLASQNIVPRAIVVTHGHEDHIGAIAWLWPRWQCPVHATPLAAGLLRLRFAEQQLPTSAIQVITPGDAMESGPFDIRFLPLPHSIPESCALLLTTPQHRILHTGDWKLDPEPLIGKPASPQRFQALAPVDLVVGDSTNAPVPGHSRSEGEVARALETTIGACPGRVIVSCFASNLARILALGRAAHACGRRVSLMGRSMERMVGVARGLGYLEDFPPLVPVRDLGYLPPEEVLVIATGSQGEPRAALSRLAQGRHADFELHPGDSVIFSAKAIPGNELLIERLQAGLKRAKVTIFDERSHPELHASGHPAQAELRRFYEWVKPRRLLPVHGEQQHQQAHRALAESLGIEVPWIPRNGDMLRLDAEGLHCESRHSLAPHIVTQNRIHPLEGLRAPEASSMHRRSGILSLTLPVVRQSTGWVRIGRLLWDTSHDLPLDDVALADWVDEQLAGHDADTIVTLRQRLHGPLMHWLGDHLRHLPDVHLHIMAAEGDTVYDAEGHHHHHH”: the “soluble on expression in E. coli” value is reported as “soluble”.

In the case of “MSLRLVKTALTIAGSDSGGGAGIEADLKTFTAFGVHGLVAITSVTAQNTQAVTAIHDIPPDVVSEQIRAVAEDIGVDAAKTGMLSNAEIIKAVAKTVKNYDFPLVVDPVMIAKSGAPLLREDAVDALIKYILPLATLVTPNRFEAEKLSGMKIRTVEDAKIAAKKIAEETGAKAVIVKGGHIEGEEAIDVLYHNGSYRLYRAPKVEGCTHGTGCSFSAAITANLAKGFGLEDAIEVAKKFITLGIAMGHRIGHGHCPVNQSAWIEIPAEKWRIYEELTRAVREFEEMNPVKFIPEVGTNFVYSLPLPYARTRDDVAGVKGRIVRVGNEVRAVGPVEFGASDHLARAVLTFMKFYPEYRSAINIRYSEETVRLAEEQGLVVSFYDRREEPEEIKEREGATIPWGIESAIKRVKQRPDVIYHLGDVGKEPMILIFGRNPREVLDKLRLEGHHHHHH”, the “soluble on expression in E. coli” value is on record as “soluble”.

With “MSLRNDAYSTLRVSSEHGVARIILDNPPVNVIGATMMRELRTVLTTLADDSSVRVIVFSSADPEFFLAHVDMRIGEKMDALQELAASAPADVNVFQAVGELIRHQPQVTIVKLAGKARGGGAEFVAAADMAFAAAETAGLGQIEALMGIIPGGGGTQYLRGRVGRNRALEVVLTADLFDAETAASYGWINRALPADELDEYVDRVARNIAALPDGVIEAAKRSLPADDLKEGLLGENDAWAATFSLPAAQQLISGGLKDGAQTPAGERDLEGLMRSVAREGHHHHHH”, the “soluble on expression in E. coli” value was “soluble”.

Consider “MSLRNVLQDYLDEHSFRVVVKKKKNYLTYEGLQDRYAYILKSGIIKTSVISKDGREFNLRYINNLEIVSLLRDEYSEFIDAPFNIRIESPQAELYQIDRVQFWRDINNSKDLQMYVKEYYRDRLMHSMKKMQQMLMNGKFGAVCTQIYEMYDSFGVETEEGILIDFVVTNEEIAHFCGITSASSVNRMMQQLKELGAIELRNRKILIKDLDMIRDNEGGSHHHHHH”, for which the “soluble on expression in E. coli” value is on record as “soluble”.

Regarding “MSLRPQFEREQWLNLNGTWTFDFDFGKSGKDRRLQSAEKFDKNITVPFCPESKLSGVGYTDFIEQMWYQRNITIPSDWNGKKIFLNFGAVDYCAEIYVDGKFVQRHFGGSSSFAVDLTRYVTPGKTHNLVVFVQDDLRSGLQTGGKQCGNYYSGGCSYTRTTGIWQTVWMEAVSTDGLKSVFVRPDIDQKQLIIEPEFYNESANTLEIILKDGNKTVAKKSVNCANSSVVVLPVKNMKLWSPEDPFLYDLVYQVKDAKGNVLDEVKSYAGMRKVHTANGRFYLNNQPYFQRLVLDQGFYPEGIWTAPSDEDLKNDIVLGKEAGFNGARLHQKVFEERYYYWADKLGYITWGESASWMLDVNKELAARNFLGEWSEVVVRDRNHPSLVTWTPFNETWGGGPDAYVRLVRDVYNITKAIDPTRPVNDASGDNHVITDIWSVHNYEQDRAKLTEQLKMEEGKEPYRNARDKDFLAVYEGQPYMVDEFGGIPWMAEKDRKNSWGYGGMPENAEAFYKRLEGQIDAFIDSPHVTGFCYTQLTDVEQEKNGIYYYDRTPKLDMKRIKAIFEKIKEGHHHHHH”, the “soluble on expression in E. coli” value is on record as “soluble”.

As for “MSLRPTMADVAREAGVSLSTVDRVLNLRADVRTDTAQRIAAAAALLGFHAKGVIEQRILNDKPTVRLGFLLQKSGVAFYKGLAQALSNAAATFTRARVQVVIGYLDDLDPATVAQRLLALGDQVDGVGMVAVDHPRVRDAVASLQVAGVPVVALISELAGLGSASYVGVDNRLMGRTAGWFVTRLAGSPGSAAVMVSSQRFQCQELCEMSFRSYLSSHSTDWELLASRLTLEDDDFAYGNALDLLSGEPELSALYVAGGGVAGVLRALRELQQQQIRLPVVVCHDLTPLTREALKADLVQVVLSHPIVQVAEQTVRALVAASSDLTRVARVTVPIQVDVSESIAEGHHHHHH”, the “soluble on expression in E. coli” value is reported as “soluble”.

In the case of “MSLRQAHFLKGKDAMNNPSVIPAFDFREMVTTLDNKIITTSLKVADYFGKRHKDVLRAIRNLKCSDDFTQRNFAPIDFIDKNGDVQPMYNITRDGCMMLVMGFTGKTAAAVKECYINAFNWMAEQLNRRMAMGEEGHHHHHH”, the “soluble on expression in E. coli” value is “soluble”.

On to “MSLRQRFVLDTTAITDAGLRIKEGYESLCESAAEVLDLIALARLKLDISCYIPYPSVYTELTSFLKRYGCDEEIFTKLDTWLVKKTPNRYEVKIPAAIFYEYIITVRQKMNRGRRLAEEYILESSAITAKLEDKSKIEEEIGALISKFRDKYRAVMRQGILDSAPDLDVLLLAKELEAGVVSSDAGIRKWSERLGLRFVEAAKFPRMLKEYLKLMGSKDIVGWFESEEDEGHHHHHH”, for which the “soluble on expression in E. coli” value is “not soluble”.

Take “MSLRSSFRVGVTEDRNKKCRRTMEDTHAYLYNFLGNPVPSAQNDDSDQSSHPSDASPKTGELTPIVETDNGYFAIFDGHAGTFAAQWCGKKLHLILEDVMRKNINAPVPELLDQTFTSVDQQLEKLPVKNSGCTAVVALLRWEDRIPTPSSVTGSSAIGPAAVAATKAGADSKADDTPTQEAAATPVPAIPPKLREKAIRQRVLYTANVGDARVILCRNGKALRLSYDHKGSDENEGRRIANAGGLIMNNRVNGVLAVTRALGDAYIKDLVTGHPYTTETVIQPDLDEFIILASDGLWDVCSDQEAVDLIRNVSDAQEASKILVDHALARFSTDNLSCMVIRLYADREGHHHHHH”: the “soluble on expression in E. coli” value is listed as “soluble”.
